The target of the test is T1, ligand binding domain of the nuclear receptor Fushi Tarazu factor-1 (LBD FTZ-F1) (Drosophila, UniProt P33244 786-1027, 15N-labelled in the experiment with the peptide; unlabelled in the experiment with GCEC).
T1 construct: cDNA synthesised (Gene Art); Cloned into pET-15b; residues left by the thrombin site are not described; Purified protein runs as a 26.5 kDa globular protein; also called FTZ-F1 LBD; LDB FTZ-F1 (786-1027); source: E. coli BL21(DE3), soluble fraction, purified (Ni-NTA, thrombin, second IMAC, SEC on Superdex75)
T1 sequence (looked up): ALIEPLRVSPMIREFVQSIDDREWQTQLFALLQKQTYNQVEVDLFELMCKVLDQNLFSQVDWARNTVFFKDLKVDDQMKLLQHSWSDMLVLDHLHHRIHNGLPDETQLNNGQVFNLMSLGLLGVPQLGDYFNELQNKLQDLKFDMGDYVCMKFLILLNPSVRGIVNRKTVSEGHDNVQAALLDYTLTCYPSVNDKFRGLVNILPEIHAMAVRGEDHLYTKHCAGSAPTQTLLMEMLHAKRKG
Kind of test: NMR titration; 1H-15N HSQC chemical shift perturbation, 15N-labelled LBD FTZ-F1 after incubation with the … peptide (concentration set by its solubility limit), buffer F with 10% D2O, 22 °C, 800 MHz. To be noted: both partners purified.

B1: 9-residue GCEC peptide (GCE^PEP) (peptide)
peptide: LRLIQNLQK
notes: stretch of the C-terminal region of GCE, D. melanogaster, with the novel NR-box (LIXXL motif; LIQNL); source: synthetic peptide (PSL GmbH, Heidelberg)
Consider B1, for which the binding result is given as “binds”.

For the origin of these results see article PMC7643343, “The intrinsically disordered region of GCE protein adopts a more fixed structure by interacting with the LBD of the nuclear receptor FTZ-F1” (Cell Communication and Signaling : CCS, 2020).
